# In patent US20140193378A1 (UNIVERSITY OF MIAMI, published 2014):
# Non-standard residues stand in square brackets, D forms with d. No end group written: not given here. *: point of attachment. Desaminotyrosyl = O=C(CCc1ccc(O)cc1)*; NMeY = CN[C@@H](Cc1ccc(O)cc1)C(=O)O; hArg = N=C(N)NCCCC[C@H](N)C(=O)O; Nle = CCCC[C@H](N)C(=O)O; Orn = NCCC[C@H](N)C(=O)O; Abu = CC[C@H](N)C(=O)O; Aoc = NCCCCCCCC(=O)O; Ava = NCCCCC(=O)O
# T1: human GHRH receptor (human pituitary membrane homogenates) (human) (UniProt Q02643)
# T1 sequence (looked up): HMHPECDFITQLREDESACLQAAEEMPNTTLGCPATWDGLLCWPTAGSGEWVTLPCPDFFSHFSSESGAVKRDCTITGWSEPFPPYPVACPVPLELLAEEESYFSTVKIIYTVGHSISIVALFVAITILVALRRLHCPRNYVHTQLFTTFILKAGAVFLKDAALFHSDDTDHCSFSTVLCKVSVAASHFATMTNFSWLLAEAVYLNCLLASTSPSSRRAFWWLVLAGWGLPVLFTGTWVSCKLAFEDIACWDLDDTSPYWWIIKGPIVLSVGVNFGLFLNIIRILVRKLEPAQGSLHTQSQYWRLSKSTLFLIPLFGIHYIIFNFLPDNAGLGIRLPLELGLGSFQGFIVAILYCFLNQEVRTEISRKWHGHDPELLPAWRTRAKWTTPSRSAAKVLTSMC
# T2: human GHRH receptor (human pituitary membrane homogenates) (human, UniProt Q02643 23-423)
# T2 construct: whole, on cells; Native receptor in human pituitary membrane homogenates, not on intact cells; also called hGHRH receptor
# T2 sequence (looked up): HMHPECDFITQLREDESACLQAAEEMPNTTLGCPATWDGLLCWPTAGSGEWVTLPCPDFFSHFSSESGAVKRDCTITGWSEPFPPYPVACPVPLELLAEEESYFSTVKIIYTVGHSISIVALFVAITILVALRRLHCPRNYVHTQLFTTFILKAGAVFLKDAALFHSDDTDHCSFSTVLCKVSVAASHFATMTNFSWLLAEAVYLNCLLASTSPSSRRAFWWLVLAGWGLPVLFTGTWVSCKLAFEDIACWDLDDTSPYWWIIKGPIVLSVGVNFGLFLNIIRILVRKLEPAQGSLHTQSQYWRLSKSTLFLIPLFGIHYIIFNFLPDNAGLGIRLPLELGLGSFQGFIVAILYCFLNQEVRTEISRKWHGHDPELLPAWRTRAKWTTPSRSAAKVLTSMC
# T3: human GHRH receptor (human pituitary membrane homogenates) (human), Q02643
# T3 chain: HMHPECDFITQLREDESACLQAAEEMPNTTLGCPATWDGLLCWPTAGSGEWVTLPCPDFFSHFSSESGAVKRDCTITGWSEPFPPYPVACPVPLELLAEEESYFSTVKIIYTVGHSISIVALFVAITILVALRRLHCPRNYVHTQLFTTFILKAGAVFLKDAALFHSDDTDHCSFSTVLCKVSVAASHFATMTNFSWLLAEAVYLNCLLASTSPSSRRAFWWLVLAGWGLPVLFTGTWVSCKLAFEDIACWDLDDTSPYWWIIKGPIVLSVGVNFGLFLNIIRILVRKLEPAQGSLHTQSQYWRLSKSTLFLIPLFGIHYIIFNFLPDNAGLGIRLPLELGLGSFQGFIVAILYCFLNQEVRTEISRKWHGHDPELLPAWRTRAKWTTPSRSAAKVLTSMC
# Experiments:
# [1] = biological target: T1, human GHRH receptor (human pituitary membrane homogenates) (human); experiment: radioligand competition vs 125I-JV-1-42 (0.2 nM), human pituitary membranes
# [2] = biological target: T2, human GHRH receptor (human pituitary …); experiment: radioligand competition vs [His1,125I-Tyr10,Nle27]hGHRH(1-32)NH2 (0.2 nM), human pituitary membranes
# Description: Normal human pituitaries were purchased from the National Hormone and Peptide Program (A. F. Parlow, Los Angeles, County Harbor—UCLA Medical Center, Torrance, Calif.).
# [3] = biological target: T3, human GHRH receptor (human pituitary …); experiment: radioligand competition vs 125I-JV-1-42 (0.2 nM), human pituitary membranes
Relative affinity (Binding potency) vs GHRH [2] [fold],Relative affinity (Binding potency) vs JI-38 [2] [fold],Binder,further results
,,"[NMeY]ADAIFTQSYR[Orn]VL[Abu]QLSAR[Orn]LLQDI[Nle]DR[Ava]-NH2 (peptide, from a related filing) [P-22325 [N-Me-Tyr^1, Gln^8, Orn^12, Abu^15, Orn^21, Nle^27, Asp^28, Apa^30]hGHRH(1-30)NH2]",Relative affinity (Binding potency) vs JI-38 [1]: 1.14 fold
42.3,13.9,"[Desaminotyrosyl][dA]DAIFTNSYR[Orn]VL[Abu]QLSAR[Orn]LLQDI[Nle]DR[hArg]-NH2 (SMILES CCCC[C@H](NC(=O)[C@@H](NC(=O)[C@H](CC(=O)O)NC(=O)[C@H](CCC(N)=O)NC(=O)[C@H](CC(C)C)NC(=O)[C@H](CC(C)C)NC(=O)[C@H](CCCN)NC(=O)[C@H](CCCNC(=N)N)NC(=O)[C@H](C)NC(=O)[C@H](CO)NC(=O)[C@H](CC(C)C)NC(=O)[C@H](CCC(N)=O)NC(=O)[C@H](CC)NC(=O)[C@H](CC(C)C)NC(=O)[C@@H](NC(=O)[C@H](CCCN)NC(=O)[C@H](CCCNC(=N)N)NC(=O)[C@H](Cc1ccc(O)cc1)NC(=O)[C@H](CO)NC(=O)[C@H](CC(N)=O)NC(=O)[C@@H](NC(=O)[C@H](Cc1ccccc1)NC(=O)[C@@H](NC(=O)[C@H](C)NC(=O)[C@H](CC(=O)O)NC(=O)[C@@H](C)NC(=O)CCc1ccc(O)cc1)[C@@H](C)CC)[C@@H](C)O)C(C)C)[C@@H](C)CC)C(=O)N[C@@H](CC(=O)O)C(=O)N[C@@H](CCCNC(=N)N)C(=O)N[C@@H](CCCCNC(=N)N)C(N)=O, also called Peptide 23252) [P-23252 [Dat^1-D-Ala^2, Orn^12, Abu^15, Orn^21, Nle^27, Asp^28, Har^30]hGHRH(1-30)NH2]",
84.5,27.8,"[Desaminotyrosyl][dA]DAIFTTSYR[Orn]VL[Abu]QLSAR[Orn]LLQDI[Nle]DR[hArg]-NH2 (SMILES CCCC[C@H](NC(=O)[C@@H](NC(=O)[C@H](CC(=O)O)NC(=O)[C@H](CCC(N)=O)NC(=O)[C@H](CC(C)C)NC(=O)[C@H](CC(C)C)NC(=O)[C@H](CCCN)NC(=O)[C@H](CCCNC(=N)N)NC(=O)[C@H](C)NC(=O)[C@H](CO)NC(=O)[C@H](CC(C)C)NC(=O)[C@H](CCC(N)=O)NC(=O)[C@H](CC)NC(=O)[C@H](CC(C)C)NC(=O)[C@@H](NC(=O)[C@H](CCCN)NC(=O)[C@H](CCCNC(=N)N)NC(=O)[C@H](Cc1ccc(O)cc1)NC(=O)[C@H](CO)NC(=O)[C@@H](NC(=O)[C@@H](NC(=O)[C@H](Cc1ccccc1)NC(=O)[C@@H](NC(=O)[C@H](C)NC(=O)[C@H](CC(=O)O)NC(=O)[C@@H](C)NC(=O)CCc1ccc(O)cc1)[C@@H](C)CC)[C@@H](C)O)[C@@H](C)O)C(C)C)[C@@H](C)CC)C(=O)N[C@@H](CC(=O)O)C(=O)N[C@@H](CCCNC(=N)N)C(=O)N[C@@H](CCCCNC(=N)N)C(N)=O, also called Peptide 23254) [P-23254 [Dat^1, D-Ala^2, Thr^8, Orn^12, Abu^15, Orn^21, Nle^27, Asp^28, Har^30]hGHRH(1-30)NH2]",
148,48.7,"[Desaminotyrosyl][dA]DAIFTASYR[Orn]VL[Abu]QLSAR[Orn]LLQDI[Nle]DR[hArg]-NH2 (SMILES CCCC[C@H](NC(=O)[C@@H](NC(=O)[C@H](CC(=O)O)NC(=O)[C@H](CCC(N)=O)NC(=O)[C@H](CC(C)C)NC(=O)[C@H](CC(C)C)NC(=O)[C@H](CCCN)NC(=O)[C@H](CCCNC(=N)N)NC(=O)[C@H](C)NC(=O)[C@H](CO)NC(=O)[C@H](CC(C)C)NC(=O)[C@H](CCC(N)=O)NC(=O)[C@H](CC)NC(=O)[C@H](CC(C)C)NC(=O)[C@@H](NC(=O)[C@H](CCCN)NC(=O)[C@H](CCCNC(=N)N)NC(=O)[C@H](Cc1ccc(O)cc1)NC(=O)[C@H](CO)NC(=O)[C@H](C)NC(=O)[C@@H](NC(=O)[C@H](Cc1ccccc1)NC(=O)[C@@H](NC(=O)[C@H](C)NC(=O)[C@H](CC(=O)O)NC(=O)[C@@H](C)NC(=O)CCc1ccc(O)cc1)[C@@H](C)CC)[C@@H](C)O)C(C)C)[C@@H](C)CC)C(=O)N[C@@H](CC(=O)O)C(=O)N[C@@H](CCCNC(=N)N)C(=O)N[C@@H](CCCCNC(=N)N)C(N)=O, also called Peptide 23256) [P-23256 [Dat^1, D-Ala^2, Ala^8, Orn^12, Abu^15, Orn^21, Nle^27, Asp^28, Har^30]hGHRH(1-30)NH2]",
74,24.4,"[Desaminotyrosyl][dA]DAIFTQSYR[Orn]VL[Abu]QLSAR[Orn]LLQDI[Nle]DR[Aoc]-NH2 (SMILES CCCC[C@H](NC(=O)[C@@H](NC(=O)[C@H](CC(=O)O)NC(=O)[C@H](CCC(N)=O)NC(=O)[C@H](CC(C)C)NC(=O)[C@H](CC(C)C)NC(=O)[C@H](CCCN)NC(=O)[C@H](CCCNC(=N)N)NC(=O)[C@H](C)NC(=O)[C@H](CO)NC(=O)[C@H](CC(C)C)NC(=O)[C@H](CCC(N)=O)NC(=O)[C@H](CC)NC(=O)[C@H](CC(C)C)NC(=O)[C@@H](NC(=O)[C@H](CCCN)NC(=O)[C@H](CCCNC(=N)N)NC(=O)[C@H](Cc1ccc(O)cc1)NC(=O)[C@H](CO)NC(=O)[C@H](CCC(N)=O)NC(=O)[C@@H](NC(=O)[C@H](Cc1ccccc1)NC(=O)[C@@H](NC(=O)[C@H](C)NC(=O)[C@H](CC(=O)O)NC(=O)[C@@H](C)NC(=O)CCc1ccc(O)cc1)[C@@H](C)CC)[C@@H](C)O)C(C)C)[C@@H](C)CC)C(=O)N[C@@H](CC(=O)O)C(=O)N[C@@H](CCCNC(=N)N)C(=O)NCCCCCCCC(N)=O, also called Peptide 21304) [P-21304 [Dat^1, D-Ala^2, Gln^8, Orn^12, Abu^15, Orn^21, Nle^27, Asp^28, Amc^30]hGHRH(1-30)NH2]",
,,"[Desaminotyrosyl]ADAIFTQSYH[Orn]VL[Abu]QLSAH[Orn]LLQDI[Nle]DR-NHMe (SMILES CCCC[C@H](NC(=O)[C@@H](NC(=O)[C@H](CC(=O)O)NC(=O)[C@H](CCC(N)=O)NC(=O)[C@H](CC(C)C)NC(=O)[C@H](CC(C)C)NC(=O)[C@H](CCCN)NC(=O)[C@H](Cc1c[nH]cn1)NC(=O)[C@H](C)NC(=O)[C@H](CO)NC(=O)[C@H](CC(C)C)NC(=O)[C@H](CCC(N)=O)NC(=O)[C@H](CC)NC(=O)[C@H](CC(C)C)NC(=O)[C@@H](NC(=O)[C@H](CCCN)NC(=O)[C@H](Cc1c[nH]cn1)NC(=O)[C@H](Cc1ccc(O)cc1)NC(=O)[C@H](CO)NC(=O)[C@H](CCC(N)=O)NC(=O)[C@@H](NC(=O)[C@H](Cc1ccccc1)NC(=O)[C@@H](NC(=O)[C@H](C)NC(=O)[C@H](CC(=O)O)NC(=O)[C@H](C)NC(=O)CCc1ccc(O)cc1)[C@@H](C)CC)[C@@H](C)O)C(C)C)[C@@H](C)CC)C(=O)N[C@@H](CC(=O)O)C(=O)N[C@@H](CCCNC(=N)N)C(=O)NC) [P-27413 [Dat^1, Gln^8, His^11, Orn^12, Abu^15, His^20, Orn^21, Nle^27, Asp^28]hGHRH(1-29)NH-CH3]",IC50 [3]: 2.45 nM; Relative affinity (Binding potency) vs JI-38 [3]: 1.78 fold
,,"[Desaminotyrosyl]ADAIFTQSYR[Orn]VL[Abu]QLSAR[Orn]LLQDI[Nle]DR[Ava]-NH2 (peptide, from a related filing, SMILES CCCC[C@H](NC(=O)[C@@H](NC(=O)[C@H](CC(=O)O)NC(=O)[C@H](CCC(N)=O)NC(=O)[C@H](CC(C)C)NC(=O)[C@H](CC(C)C)NC(=O)[C@H](CCCN)NC(=O)[C@H](CCCNC(=N)N)NC(=O)[C@H](C)NC(=O)[C@H](CO)NC(=O)[C@H](CC(C)C)NC(=O)[C@H](CCC(N)=O)NC(=O)[C@H](CC)NC(=O)[C@H](CC(C)C)NC(=O)[C@@H](NC(=O)[C@H](CCCN)NC(=O)[C@H](CCCNC(=N)N)NC(=O)[C@H](Cc1ccc(O)cc1)NC(=O)[C@H](CO)NC(=O)[C@H](CCC(N)=O)NC(=O)[C@@H](NC(=O)[C@H](Cc1ccccc1)NC(=O)[C@@H](NC(=O)[C@H](C)NC(=O)[C@H](CC(=O)O)NC(=O)[C@H](C)NC(=O)CCc1ccc(O)cc1)[C@@H](C)CC)[C@@H](C)O)C(C)C)[C@@H](C)CC)C(=O)N[C@@H](CC(=O)O)C(=O)N[C@@H](CCCNC(=N)N)C(=O)NCCCCC(N)=O) [P-22327 [Dat^1, Gln^8, Orn^12, Abu^15, Orn^21, Nle^27, Asp^28, Apa^30]hGHRH(1-30)NH2]",Relative affinity (Binding potency) vs JI-38 [1]: 2.18 fold
